This series deals with the molecule itself. The series is described as follows: transfection of COS-7 cells, non-denaturing Western blot of supernatants. Background: Immunoblotting shows a protein as a band on a membrane.

Method: COS-7 cells were transfected with 1.5 μg of each cDNA construct using the Invitrogen Life Technologies Lipofectamine™ reagent (as described by the manufacturer) and cultured in 3-cm dishes with DMEM (without FCS and penicillin/streptomycin). After 8 h, transfected cells were washed and cultured in DMEM with penicillin/streptomycin and 10% FCS. After 72 h incubation at 37° C./5% C0₂ the cell culture supernatants were harvested and centrifuged at 13,000 rpm for 10 min at 4° C. to remove cell debris. The supernatants were analyzed via Western blotting and used immediately or stored at −70° C.
Cell culture supernatants from transfected COS-7 cells were size fractionated using 4-12% Nu-PAGE™ (Invitrogen) and blotted onto nitrocellulose filters (Schleicher & Schuell). Western blots were blocked in 3% skimmed milk (MPBS) in PBS, and subsequently incubated with a polyclonal antibody that was raised against a FeIL-12 p40 peptide diluted 1:300 in MPBS. Blocking and antibody incubation were each performed for 1 h at room temperature. After extensive washing (3 times 5 min), blots were incubated with alkaline peroxidase (AP)-conjugated goat anti-rabbit IgG antibodies (Sanbio) diluted 1:1000 in MPBS for 1 h at room temperature. After washing (3 times 5 min), bound AP-labeled secondary antibodies were visualized via staining. […]

B1: chicken IL-12 p40 subunit (ChIL-12 p40) (ligand)
chain: QWKLRENVYVIESEWNDETPAKKVKLTCDTSDEALPVYWKKGTELKGTGKTLTTEVKEFPDAGNYTCLSAKTHEIISYSFFLITKVDSNGQMIRSILKSYKEPSKTFLKCEAKNYSGIFTCSWMTENESPSVKFTIRSLKGSQGDVTCSSPVARTDKSVTEYTAQCQKENYCPFAEEHQPTEMFLEVIDEVEYENYTSSFFIRDIIKPDPPQCQYASTNGTVTWTYPKTWSTPKSYFPLTFRVKVESTKKYKSKVYDADEQSIQIPKTGPKDKISVQARDRYYNSSWSEWSTLCR
notes: also called chicken p40; clone pND89
Regarding B1, the binding result is “binds”.

Source of the values: patent publication US20080063623A1 (INTEVERT INTERNATIONAL B V, published 2008).
